T1: human fibroblast activation protein (FAP) (human, UniProt Q12884 26-760)
T1 construct: also called human FAP; hFAP
T1 sequence: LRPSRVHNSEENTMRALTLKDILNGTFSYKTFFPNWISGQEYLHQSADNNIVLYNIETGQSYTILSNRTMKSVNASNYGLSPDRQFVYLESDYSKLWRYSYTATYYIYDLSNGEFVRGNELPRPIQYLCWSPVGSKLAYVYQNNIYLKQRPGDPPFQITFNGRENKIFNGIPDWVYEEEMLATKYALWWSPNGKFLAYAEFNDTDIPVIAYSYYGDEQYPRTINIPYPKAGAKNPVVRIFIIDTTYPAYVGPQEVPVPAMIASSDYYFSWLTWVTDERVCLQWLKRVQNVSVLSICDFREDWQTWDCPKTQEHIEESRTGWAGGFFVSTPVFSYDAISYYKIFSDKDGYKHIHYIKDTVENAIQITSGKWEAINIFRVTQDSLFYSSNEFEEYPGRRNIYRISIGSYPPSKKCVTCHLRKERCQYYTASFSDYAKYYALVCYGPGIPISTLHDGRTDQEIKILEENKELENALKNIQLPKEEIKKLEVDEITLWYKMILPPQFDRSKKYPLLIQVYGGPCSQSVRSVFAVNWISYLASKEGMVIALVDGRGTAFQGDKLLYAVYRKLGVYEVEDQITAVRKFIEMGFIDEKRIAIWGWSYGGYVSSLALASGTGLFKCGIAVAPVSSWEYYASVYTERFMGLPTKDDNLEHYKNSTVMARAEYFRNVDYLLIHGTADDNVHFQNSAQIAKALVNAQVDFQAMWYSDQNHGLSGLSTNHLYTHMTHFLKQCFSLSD

T2: human FAP (Homo sapiens, UniProt Q12884)
T2 sequence (Q12884 1-760): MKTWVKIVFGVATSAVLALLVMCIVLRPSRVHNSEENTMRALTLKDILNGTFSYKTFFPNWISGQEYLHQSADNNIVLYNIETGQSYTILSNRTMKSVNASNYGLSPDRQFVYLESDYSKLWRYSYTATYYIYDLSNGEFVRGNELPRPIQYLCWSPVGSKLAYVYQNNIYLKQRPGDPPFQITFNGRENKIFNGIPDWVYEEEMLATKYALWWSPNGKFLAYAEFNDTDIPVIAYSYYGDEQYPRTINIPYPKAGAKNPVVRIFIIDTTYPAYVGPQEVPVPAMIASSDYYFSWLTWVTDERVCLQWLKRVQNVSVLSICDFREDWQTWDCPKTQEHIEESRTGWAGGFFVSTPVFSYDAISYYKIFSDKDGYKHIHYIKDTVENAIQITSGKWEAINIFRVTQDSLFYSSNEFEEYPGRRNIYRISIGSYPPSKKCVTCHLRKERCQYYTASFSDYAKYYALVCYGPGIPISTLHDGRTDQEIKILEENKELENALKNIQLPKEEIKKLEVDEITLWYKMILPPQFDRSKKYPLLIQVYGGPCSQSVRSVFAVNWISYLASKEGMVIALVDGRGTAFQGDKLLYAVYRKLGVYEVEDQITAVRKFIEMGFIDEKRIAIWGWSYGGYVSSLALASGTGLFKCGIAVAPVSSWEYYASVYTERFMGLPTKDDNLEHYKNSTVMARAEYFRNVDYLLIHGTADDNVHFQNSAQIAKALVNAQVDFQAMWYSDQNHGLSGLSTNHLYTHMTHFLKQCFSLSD


Tests used:
[1] = target: T1, human fibroblast activation protein …; assay: BLI (Octet), kinetics to human FAP, pre TCO conjugation
Description: Using the BLI technology on Octet system the binding kinetics towards human FAP were determined for each of the five VHHs pre- and post-TCO conjugation.

human FAP [2] = target: T2, human FAP; assay: BLI (Octet) binding kinetics pre- and post-TCO conjugation (Example 7, Table 17)
Description: Five VHHs binding the target (human FAP) with different dissociation rate constants were conjugated to TCO-NHS. Using the BLI technology on Octet system the binding kinetics towards human FAP were determined for each of the five VHHs pre- and post-TCO conjugation.

human FAP [3] = target: T2, human FAP; assay: BLI click reaction with Tz-R3B23 on TCO-VHHs bound to target, span (Example 7, Table 18); conditions: for Span: signal difference vs assay buffer
Description: Next, Octet Streptavidin (SA) Biosensors were coated with 5 μg/mL biotinylated human FAP in assay buffer (HBS+0.5% BSA+0.1% Tween20) for 5 minutes. The sensors were then dipped in wells containing a 5 nM solution of the different VHHs (both TCO conjugated and unconjugated as control) for 20 minutes (association step) and further transferred to the assay buffer (dissociation step) for 30 minutes. After the dissociation phase, that simulates the lag time, the sensors were transferred to either a well containing 50 nM of a tetrazine-coupled, non-FAP binding R3B23 (Tz-R3B23) or to a well containing assay buffer as a control. This reaction was allowed to proceed for 20 minutes (experiment 1) or 30 minutes (experiment 2) after which the sensors were washed for 30 minutes in assay buffer. In the second experiment the TCO-VHHs were measured in duplicate (referred to as assay 1 and 2 of ‘experiment 2’ in the table below). Using the epitope binning function of ‘Octet Analysis Software’ we then determined the difference in signal between the VHHs incubated with Tz-R3B23 and the VHHs incubated with assay buffer. […] The span of unconjugated VHHs was considered as noise.

[4] = Experiment 1, click reaction with 50 nM Tz-R3B23 for 20 minutes
[5] = Experiment 2, 1st assay, click reaction with 50 nM Tz-R3B23 for 30 minutes
[6] = Experiment 2, 2nd assay, click reaction with 50 nM Tz-R3B23 for 30 minutes

Row | Molecule | Kd [1] [nM] | koff [1] [s⁻¹] | kon [1] [M⁻¹ s⁻¹] | koff (human FAP [2]; Post conjugation (TCO)) [s⁻¹] | kon (human FAP [2]; Post conjugation (TCO)) [M⁻¹ s⁻¹] | koff (human FAP [2]; Pre conjugation (TCO)) [s⁻¹] | kon (human FAP [2]; Pre conjugation (TCO)) [M⁻¹ s⁻¹] | Span (human FAP [3]; [4]) | Span (human FAP [3]; [5]) | also measured
1 | VHH7 (VHH, Anti-FAP VHH, tested before TCO conjugation; also called unconjugated VHH7) VHH: QVQLQESGGGLVQAGGSLRLSCTASGTFSGRNAMAWYRQAPGKRRELVAGIRSDDSTNYVDSVKGRFTISRDNAKNTVYLQMNSLRPEDTAVYYCNLWPPVIGAGFGSWGQGTQVTVSS | 0.0819 | 0.000197 | 2.4e+06 | – | – | – | – | – | – | –
2 | VHH6: VHH, target FAP, SEQ ID NO 89 (protein) VHH: DVQLVESGGGLVQAGGSLRLSCAVSGSISSANSMGWYRQAPGKQRDVVAGLTTGGRSHYADSVKGRFTISRDNAKNTVYLQMNSLKAEDTAVYYCNLWPPVQGYWGQGTQVTVSS | – | – | – | 0.000157 | 1.07e+06 | 0.000188 | 3.41e+06 | 0.0021 | 0.0017 | –
3 | TCO-VHH9: TCO conjugated VHH9 (FAP binding) (conjugate, cyclised or stapled) VHH: QVQLQESGGGLVQSGGSLRLSCVASGSISSINAMGWYRQAPGNKREWVAGITSGGSTNYADAVLGRFSIFRDNPKNTVYLQMNSLKPEDTAVYYCNTWPPSTFGSWGQGTQVTVSSAAAYPYDVPDYGSHHHHHH | – | – | – | – | – | – | – | 0.0015 | 0.0091 | Span (human FAP [3]; [6]): 0.0113; click reaction (span versus noise value) (human FAP [3]; experiment 1 (20 minutes Tz-R3B23)): no click reaction took place; click reaction (span versus noise value) (human FAP [3]; experiment 2 (30 minutes Tz-R3B23), both assays): just above the noise value
4 | TCO-VHH8 (conjugate, cyclised or stapled) VHH: QVQLQESGGGTVQPGGSLRLSCAASGISVSIASMAWYRQAPGKQRELVAGIISGGSTNYADSVKGRFTISRDNAKKVVLLQMNSLKPEDTAVYYCNTYPPFVGPGATATWGQGTQVTVSSAAAYPYDVPDYGSHHHHHH | – | – | – | – | – | – | – | 0.0224 | 0.0218 | Span (human FAP [3]; [6]): 0.0341
5 | VHH1 (VHH, Anti-FAP VHH, tested before TCO conjugation; also called VHH VHH1; unconjugated VHH1) VHH: DVQLVESGGGLVQPGGSLRLSCVASGRLSSSNSMAWYRQVPGKRRELVAGITGGGETNYADFVGGRFTISRDNAKNGLYLQLNGLKPEDTAAYYCNFWPPLINYWGQGTQVTVSS | 0.0482 | 8.52e-05 | 1.77e+06 | – | – | – | – | – | – | –
6 | VHH1: VHH, target FAP, SEQ ID NO 4 (protein, VHH1) VHH: DVQLVESGGGLVQPGGSLRLSCVASGRLSSSNSMAWYRQVPGKRRELVAGITGGGETNYADFVGGRFTISRDNAKNGLYLQLNGLKPEDTAAYYCNFWPPLINYWGQGTQVTVSS | – | – | – | 4.99e-05 | 694000 | 8.52e-05 | 1.77e+06 | 0.0089 | 0.0004 | –
7 | TCO-VHH1: VHH1, functionalized with transcyclooctene (TCO) (conjugate, cyclised or stapled) VHH: DVQLVESGGGLVQPGGSLRLSCVASGRLSSSNSMAWYRQVPGKRRELVAGITGGGETNYADFVGGRFTISRDNAKNGLYLQLNGLKPEDTAAYYCNFWPPLINYWGQGTQVTVSS | – | – | – | – | – | – | – | 0.0237 | 0.0334 | Span (human FAP [3]; [6]): 0.0257
8 | VHH7: VHH, target FAP, SEQ ID NO 90 (protein) VHH: QVQLQESGGGLVQAGGSLRLSCTASGTFSGRNAMAWYRQAPGKRRELVAGIRSDDSTNYVDSVKGRFTISRDNAKNTVYLQMNSLRPEDTAVYYCNLWPPVIGAGFGSWGQGTQVTVSSAAAYPYDVPDYGSHHHHHH | – | – | – | 0.000123 | 746000 | 0.000197 | 2.4e+06 | 0.0082 | 0.0018 | –
9 | TCO-VHH7 (conjugate, cyclised or stapled) VHH: QVQLQESGGGLVQAGGSLRLSCTASGTFSGRNAMAWYRQAPGKRRELVAGIRSDDSTNYVDSVKGRFTISRDNAKNTVYLQMNSLRPEDTAVYYCNLWPPVIGAGFGSWGQGTQVTVSSAAAYPYDVPDYGSHHHHHH | – | – | – | – | – | – | – | 0.0145 | 0.0186 | Span (human FAP [3]; [6]): 0.0230

Continued, in another order:

Row | Kd [1] [nM] | koff [1] [s⁻¹] | kon [1] [M⁻¹ s⁻¹] | koff (human FAP [2]; Post conjugation (TCO)) [s⁻¹] | kon (human FAP [2]; Post conjugation (TCO)) [M⁻¹ s⁻¹] | koff (human FAP [2]; Pre conjugation (TCO)) [s⁻¹] | kon (human FAP [2]; Pre conjugation (TCO)) [M⁻¹ s⁻¹] | Span (human FAP [3]; [4]) | Span (human FAP [3]; [5]) | Molecule | also measured
10 | 0.0551 | 0.000188 | 3.41e+06 | – | – | – | – | – | – | VHH6 (VHH, Anti-FAP VHH, tested before TCO conjugation; also called unconjugated VHH6) VHH: DVQLVESGGGLVQAGGSLRLSCAVSGSISSANSMGWYRQAPGKQRDVVAGLTTGGRSHYADSVKGRFTISRDNAKNTVYLQMNSLKAEDTAVYYCNLWPPVQGYWGQGTQVTVSS | –
11 | – | – | – | 0.0012 | 1.26e+06 | 0.0018 | 3.98e+06 | 0.0040 | −0.0008 | VHH9: VHH, target FAP, SEQ ID NO 92 (protein) VHH: QVQLQESGGGLVQSGGSLRLSCVASGSISSINAMGWYRQAPGNKREWVAGITSGGSTNYADAVLGRFSIFRDNPKNTVYLQMNSLKPEDTAVYYCNTWPPSTFGSWGQGTQVTVSSAAAYPYDVPDYGSHHHHHH | –
12 | 0.672 | 0.000679 | 1.01e+06 | – | – | – | – | – | – | VHH8 (VHH, Anti-FAP VHH, tested before TCO conjugation; also called unconjugated VHH8) VHH: QVQLQESGGGTVQPGGSLRLSCAASGISVSIASMAWYRQAPGKQRELVAGIISGGSTNYADSVKGRFTISRDNAKKVVLLQMNSLKPEDTAVYYCNTYPPFVGPGATATWGQGTQVTVSS | –
13 | – | – | – | 0.000559 | 833000 | 0.000679 | 1.01e+06 | 0.0096 | 0.0028 | VHH8: VHH, target FAP, SEQ ID NO 91 (protein) VHH: QVQLQESGGGTVQPGGSLRLSCAASGISVSIASMAWYRQAPGKQRELVAGIISGGSTNYADSVKGRFTISRDNAKKVVLLQMNSLKPEDTAVYYCNTYPPFVGPGATATWGQGTQVTVSSAAAYPYDVPDYGSHHHHHH | span of unconjugated VHHs (noise) (human FAP [3]; both experiments): the highest
14 | 0.453 | 0.0018 | 3.98e+06 | – | – | – | – | – | – | VHH9 (VHH, Anti-FAP VHH, tested before TCO conjugation; also called unconjugated VHH9) VHH: QVQLQESGGGLVQSGGSLRLSCVASGSISSINAMGWYRQAPGNKREWVAGITSGGSTNYADAVLGRFSIFRDNPKNTVYLQMNSLKPEDTAVYYCNTWPPSTFGSWGQGTQVTVSS | –
